Test results as given in paper PMC10754689.

Key:
Assay in all cases: TPM
[1] = tested on: LI Int S10A (Listeria innocua prophage (phage LI)); conditions: 5 mM Mg2+, TPM (LI Int): 20 mM Tris-HCl pH 8.0, 150 mM KCl, 5% glycerol, 5 mM MgCl2, 5 mM DTT, 2 mg/mL BSA, 22°C, 30 min, φC31 Int at 20 nM, its buffer not in the …
[2] = tested on: LI Int wt (Listeria innocua prophage (phage LI)); conditions: 5 mM Mg2+, TPM (LI Int): 20 mM Tris-HCl pH 8.0, 150 mM KCl, 5% glycerol, 5 mM MgCl2, 5 mM DTT, 2 mg/mL BSA, 22°C, 30 min, φC31 Int at 20 nM, its buffer not in the …
[3] = tested on: LI Int K362A (Listeria innocua prophage (phage LI)); conditions: 200 or 400 nM Int, 5 mM Mg2+, TPM (LI Int): 20 mM Tris-HCl pH 8.0, 150 mM KCl, 5% glycerol, 5 mM MgCl2, 5 mM DTT, 2 mg/mL BSA, 22°C, 30 min, φC31 Int at 20 nM, its buffer not in the …
[4] = tested on: LI Int ΔCC (Listeria innocua prophage (phage LI)); conditions: 200 or 400 nM Int, 5 mM Mg2+, TPM (LI Int): 20 mM Tris-HCl pH 8.0, 150 mM KCl, 5% glycerol, 5 mM MgCl2, 5 mM DTT, 2 mg/mL BSA, 22°C, 30 min, φC31 Int at 20 nM, its buffer not in the …
[5] = tested on: φC31 Int ΔCC (Streptomyces coelicolor phage φC31); conditions: TPM (LI Int): 20 mM Tris-HCl pH 8.0, 150 mM KCl, 5% glycerol, 5 mM MgCl2, 5 mM DTT, 2 mg/mL BSA, 22°C, 30 min, φC31 Int at 20 nM, its buffer not in the …
[6] = tested on: φC31 Int wt (Streptomyces coelicolor phage φC31); conditions: TPM (LI Int): 20 mM Tris-HCl pH 8.0, 150 mM KCl, 5% glycerol, 5 mM MgCl2, 5 mM DTT, 2 mg/mL BSA, 22°C, 30 min, φC31 Int at 20 nM, its buffer not in the …

Work on LI attB-attP head-to-tail 1303 bp yielded a binding signal ([1]; 100 nM Int) of 76.4 % DNA bound, a binding signal ([2]; 100 nM Int) of 81.1 % DNA bound and a binding signal [3] of 54.9 % DNA bound. The binding signal [4] was 17.8 % DNA bound.
For LI attL-attR head-to-tail 1303 bp, the binding signal ([1]; 200 nM Int, no RDF) was 51.7 % DNA bound, the binding signal ([2]; 200 nM Int, no RDF) was 48.6 % DNA bound and the binding signal ([3]; no RDF) was 20.5 % DNA bound. The binding signal ([4]; no RDF) was 16.1 % DNA bound.
φC31 attB-attP head-to-tail 1303 bp was tested, and the binding signal ([5]; 20 nM Int) was 30.6 % DNA bound and the binding signal ([6]; 20 nM Int) was 80.4 % DNA bound.
φC31 attL-attR head-to-tail 1303 bp was tested, and the binding signal [5] was 21 % DNA bound and the binding signal [6] was 19.9 % DNA bound.
